The values that follow are results of earlier work, collected in publication PMC2712931.

The data set has as its target Pex5 (UniProt P50542).

In the case of Pex14 (from UniProt O75381), the Kd is 2750 nM.
